Experimental data taken from patent publication US20100129369A1 (Eli Lilly, published 2010).

Tests used:
PlexinA2-ECD-Fc [1] = biological target: T1, PlexinA2-ECD-Fc (human, UniProt O75051 35-1237); assay: ELISA, coated ECD-Fc, antibody 0.060 ng/mL
T1 construct: extracellular domain; Bought reagent
T1 sequence (looked up): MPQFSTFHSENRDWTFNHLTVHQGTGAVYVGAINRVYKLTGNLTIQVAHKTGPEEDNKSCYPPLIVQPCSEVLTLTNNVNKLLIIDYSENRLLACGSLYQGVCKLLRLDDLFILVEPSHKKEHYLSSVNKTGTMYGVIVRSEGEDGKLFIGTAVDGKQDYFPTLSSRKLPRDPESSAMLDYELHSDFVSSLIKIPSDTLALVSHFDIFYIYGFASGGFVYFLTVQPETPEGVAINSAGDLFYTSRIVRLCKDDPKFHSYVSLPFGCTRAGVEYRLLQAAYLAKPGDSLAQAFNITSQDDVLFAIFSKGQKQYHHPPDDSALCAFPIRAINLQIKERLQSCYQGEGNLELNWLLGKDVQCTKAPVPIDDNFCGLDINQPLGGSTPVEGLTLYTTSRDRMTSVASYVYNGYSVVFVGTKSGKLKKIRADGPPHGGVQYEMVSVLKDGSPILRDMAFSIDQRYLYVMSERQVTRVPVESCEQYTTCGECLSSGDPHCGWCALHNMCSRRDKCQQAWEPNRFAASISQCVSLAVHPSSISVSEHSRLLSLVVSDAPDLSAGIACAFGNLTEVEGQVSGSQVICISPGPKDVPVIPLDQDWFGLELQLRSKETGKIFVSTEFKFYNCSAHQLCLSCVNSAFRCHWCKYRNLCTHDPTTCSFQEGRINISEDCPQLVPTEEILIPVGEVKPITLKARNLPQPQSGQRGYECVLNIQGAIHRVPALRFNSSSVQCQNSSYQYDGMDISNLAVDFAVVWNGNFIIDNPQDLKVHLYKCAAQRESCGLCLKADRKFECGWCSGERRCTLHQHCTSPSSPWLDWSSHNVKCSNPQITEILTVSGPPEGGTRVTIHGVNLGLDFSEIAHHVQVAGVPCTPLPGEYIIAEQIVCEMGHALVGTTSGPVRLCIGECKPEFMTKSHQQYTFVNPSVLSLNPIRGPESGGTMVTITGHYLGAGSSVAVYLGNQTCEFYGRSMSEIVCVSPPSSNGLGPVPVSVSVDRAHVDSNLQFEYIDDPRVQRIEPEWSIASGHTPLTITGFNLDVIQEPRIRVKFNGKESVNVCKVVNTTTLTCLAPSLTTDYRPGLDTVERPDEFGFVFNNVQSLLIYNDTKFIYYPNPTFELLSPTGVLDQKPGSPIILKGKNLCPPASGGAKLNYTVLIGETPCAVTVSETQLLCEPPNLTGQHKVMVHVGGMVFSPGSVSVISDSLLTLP
Description: (§1) Wells of 96-well EIA/RIA high binding plates (Costar, #2592) are coated with 100 μL of 1 μg/mL human c-Met extracellular domain (ECD)-Fc-Flis fusion (SEQ ID NO:72), RON-ECD-Fc (R&D Systems, #1947-MS), or PlexinA2-ECD-Fc (Abnova, Taipei, Taiwan #H00005362-P01) in coating buffer (BioFX Labs, # COAT-1000-01) overnight at 4° C. […] After the plates are washed, 100 μL/well of substrate solution (BioFx, #TMBW-1000-01) are added and the plates are incubated for 10 min. at room temperature. 100 μL/well of stop solution (BioFx, # LSTP-1000-01) are added to stop the reaction. The colorimetric signals are developed and read at 450 nm using a SpectraMax 190 plate reader (Molecular Devices, Sunnyvale, Calif.). c-Met antibody binding to c-Met, RON and PlexinA2 ECDs is proportional to color signal production.

RON-ECD-Fc [2] = biological target: T2, RON-ECD-Fc (human, UniProt Q04912 25-957); assay: ELISA, coated ECD-Fc, antibody 0.060 ng/mL
T2 construct: extracellular domain; Bought reagent; not shown: Fc part of the bought fusion
T2 sequence (looked up): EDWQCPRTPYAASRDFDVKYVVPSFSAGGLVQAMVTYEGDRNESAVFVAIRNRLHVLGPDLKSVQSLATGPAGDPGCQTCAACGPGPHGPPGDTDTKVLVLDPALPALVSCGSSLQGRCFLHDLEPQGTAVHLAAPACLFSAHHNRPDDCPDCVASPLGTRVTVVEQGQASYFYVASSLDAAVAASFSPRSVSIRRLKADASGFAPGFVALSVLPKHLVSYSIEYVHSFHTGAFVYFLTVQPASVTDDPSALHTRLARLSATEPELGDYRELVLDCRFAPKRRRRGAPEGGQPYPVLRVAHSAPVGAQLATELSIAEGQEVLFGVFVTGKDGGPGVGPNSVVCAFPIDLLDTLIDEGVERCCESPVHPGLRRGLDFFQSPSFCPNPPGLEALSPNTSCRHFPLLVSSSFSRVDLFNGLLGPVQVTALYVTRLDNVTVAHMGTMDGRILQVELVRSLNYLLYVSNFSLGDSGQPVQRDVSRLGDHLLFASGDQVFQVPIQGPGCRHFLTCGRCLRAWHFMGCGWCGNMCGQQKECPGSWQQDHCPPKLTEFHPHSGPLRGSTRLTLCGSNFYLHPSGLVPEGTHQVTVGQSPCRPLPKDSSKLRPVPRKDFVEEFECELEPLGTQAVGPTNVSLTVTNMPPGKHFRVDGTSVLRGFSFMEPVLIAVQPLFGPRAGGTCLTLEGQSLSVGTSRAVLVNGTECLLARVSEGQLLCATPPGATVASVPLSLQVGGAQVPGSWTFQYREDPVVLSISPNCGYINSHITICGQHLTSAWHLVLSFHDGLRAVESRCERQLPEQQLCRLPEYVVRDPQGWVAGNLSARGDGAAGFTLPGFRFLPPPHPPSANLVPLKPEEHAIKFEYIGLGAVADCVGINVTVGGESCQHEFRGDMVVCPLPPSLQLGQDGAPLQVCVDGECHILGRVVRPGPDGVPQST
Description: as §1

Human c-Met-Flis-Fc ECD [3] = biological target: T3, Human c-Met-Flis-Fc ECD (human); assay: ELISA, coated ECD-Fc, antibody 0.060 ng/mL
T3 construct: also called human c-Met extracellular domain (ECD)-Fc-Flis fusion; Human cMet-ECD-Fc-Flis
Description: as §1

PlexinA2-ECD-Fc [4] = biological target: T1, PlexinA2-ECD-Fc; assay: ELISA, coated ECD-Fc, antibody 100000.000 ng/mL
Description: as §1

RON-ECD-Fc [5] = biological target: T2, RON-ECD-Fc; assay: ELISA, coated ECD-Fc, antibody 100000.000 ng/mL
Description: as §1

Human c-Met-Flis-Fc ECD [6] = biological target: T3, Human c-Met-Flis-Fc ECD; assay: ELISA, coated ECD-Fc, antibody 100000.000 ng/mL
Description: as §1

T3 sequence (chain, as listed by the source limits assumed): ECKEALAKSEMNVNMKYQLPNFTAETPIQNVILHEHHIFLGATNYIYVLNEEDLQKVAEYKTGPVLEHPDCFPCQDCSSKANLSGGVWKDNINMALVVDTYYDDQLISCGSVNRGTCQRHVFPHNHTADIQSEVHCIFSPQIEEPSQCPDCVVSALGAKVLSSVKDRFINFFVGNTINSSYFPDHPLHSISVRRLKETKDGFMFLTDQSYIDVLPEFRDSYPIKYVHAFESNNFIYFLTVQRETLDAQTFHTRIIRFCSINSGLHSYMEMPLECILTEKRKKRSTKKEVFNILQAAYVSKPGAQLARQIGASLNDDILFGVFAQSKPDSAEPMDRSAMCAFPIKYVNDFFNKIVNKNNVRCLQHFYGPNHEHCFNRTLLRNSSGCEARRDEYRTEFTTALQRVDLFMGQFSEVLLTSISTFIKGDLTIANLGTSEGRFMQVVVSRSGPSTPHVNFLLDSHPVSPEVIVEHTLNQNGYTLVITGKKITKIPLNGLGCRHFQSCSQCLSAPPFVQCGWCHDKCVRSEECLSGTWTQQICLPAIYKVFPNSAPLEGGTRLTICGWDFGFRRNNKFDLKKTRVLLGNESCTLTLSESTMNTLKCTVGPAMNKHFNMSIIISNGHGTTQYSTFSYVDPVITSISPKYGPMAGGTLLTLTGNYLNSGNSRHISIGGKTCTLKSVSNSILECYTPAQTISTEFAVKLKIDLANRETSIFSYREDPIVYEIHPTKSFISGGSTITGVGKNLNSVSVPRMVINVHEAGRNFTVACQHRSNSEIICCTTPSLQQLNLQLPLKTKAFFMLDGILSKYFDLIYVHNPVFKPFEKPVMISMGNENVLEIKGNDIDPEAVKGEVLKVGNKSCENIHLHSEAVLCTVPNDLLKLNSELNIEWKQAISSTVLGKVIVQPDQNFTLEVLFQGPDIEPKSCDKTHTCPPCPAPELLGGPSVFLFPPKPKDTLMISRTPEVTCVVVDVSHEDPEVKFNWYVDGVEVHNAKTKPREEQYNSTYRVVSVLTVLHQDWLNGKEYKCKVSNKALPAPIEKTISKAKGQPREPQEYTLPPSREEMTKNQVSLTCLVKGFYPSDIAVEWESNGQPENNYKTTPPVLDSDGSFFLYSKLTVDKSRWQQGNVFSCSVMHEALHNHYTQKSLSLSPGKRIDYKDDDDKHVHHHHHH

B1: C8-6 (antibody, human IgG2, kappa, V domains shown)
VH: QVQLVQSGAEVKKPGASVKVSCKASGYTFTDYYMHWVRQAPGQGLEWMGRVNPNRGGTTYNQKFEGRVTMTTDTSTSTAYMELRSLRSDDTAVYYCARTNWLDYWGQGTTVTVSS
VL: DIQMTQSPSSLSASVGDRVTITCSVSSSVSSIYLHWYQQKPGKAPKLLIYSTSNLASGVPSRFSGSGSGTDFTLTISSLQPEDFATYYCIQYSGYPLTFGGGTKVEIKR
notes: Called IgG4, kappa; also called Mab C8-6
Average A450 nm (PlexinA2-ECD-Fc [1]): 0.096 A450 nm
Average A450 nm (RON-ECD-Fc [2]): 0.087 A450 nm
Average A450 nm (Human c-Met-Flis-Fc ECD [3]): 0.551 A450 nm
Average A450 nm (PlexinA2-ECD-Fc [4]): 0.171 A450 nm
Average A450 nm (RON-ECD-Fc [5]): 0.17 A450 nm
Average A450 nm (Human c-Met-Flis-Fc ECD [6]): 4 A450 nm
